Laboratory results as given in the RNAGym collection of RNA variant scans (doi:10.1021/acssynbio.7b00057).

B1: Pistol ribozyme (parent)
chain: GGGUCGUUGUUCCAUAAUCGCGUGGAUAUGGCACGCAAGUUUCUACCGGGCACCGUAAAUGUCCGACUGGAGCCGUUCGGGCGGCUAUAAACAGACCUCAGGCCCGAAGCGUGGCGGCACCUGCCGCCGGUGGUAAAAAAGAUCGGAAGAGCACACGUCU

Variants of: B1
Test: aptazyme ON/OFF ratio, guanine; higher = stronger switching; co-transcriptional cleavage with and without guanine

Variant | aptazyme ON/OFF ratio
GGGUCGAUAAUUGAUAAUCGCGUGGAUAUGGCACGCAAGUUUCUACCGGGCACCGUAAAUGUCCGACUGGAGCCGUUCGGGCGGCUAUAAACAGACCUCAGGCCCGAAGCGUGGCGGCACCUGCCGCCGGUGGUAAAAAAGAUCGGAAGAGCACACGUCU [U7A G9A U10A C12U C13G] | 1.11
GGGUCGAUAAUUAAUAAUCGCGUGGAUAUGGCACGCAAGUUUCUACCGGGCACCGUAAAUGUCCGACUGGAGCCGUUCGGGCGGCUAUAAACAGACCUCAGGCCCGAAGCGUGGCGGCACCUGCCGCCGGUGGUAAAAAAGAUCGGAAGAGCACACGUCU [U7A G9A U10A C12U C13A] | 1.1
GGGUCGAUAAUUUAUAAUCGCGUGGAUAUGGCACGCAAGUUUCUACCGGGCACCGUAAAUGUCCGACUGGAGCCGUUCGGGCGGCUAUAAACAGACCUCAGGCCCGAAGCGUGGCGGCACCUGCCGCCGGUGGUAAAAAAGAUCGGAAGAGCACACGUCU [U7A G9A U10A C12U C13U] | 1.2
GGGUCGAUAAAAUAUAAUCGCGUGGAUAUGGCACGCAAGUUUCUACCGGGCACCGUAAAUGUCCGACUGGAGCCGUUCGGGCGGCUAUAAACAGACCUCAGGCCCGAAGCGUGGCGGCACCUGCCGCCGGUGGUAAAAAAGAUCGGAAGAGCACACGUCU [U7A G9A U10A U11A C12A C13U] | 1.32
GGGUCGAUAAAAAAUAAUCGCGUGGAUAUGGCACGCAAGUUUCUACCGGGCACCGUAAAUGUCCGACUGGAGCCGUUCGGGCGGCUAUAAACAGACCUCAGGCCCGAAGCGUGGCGGCACCUGCCGCCGGUGGUAAAAAAGAUCGGAAGAGCACACGUCU [U7A G9A U10A U11A C12A C13A] | 1.41
GGGUCGAUAAAAGAUAAUCGCGUGGAUAUGGCACGCAAGUUUCUACCGGGCACCGUAAAUGUCCGACUGGAGCCGUUCGGGCGGCUAUAAACAGACCUCAGGCCCGAAGCGUGGCGGCACCUGCCGCCGGUGGUAAAAAAGAUCGGAAGAGCACACGUCU [U7A G9A U10A U11A C12A C13G] | 1.13
GGGUCGAUAAUCAAUAAUCGCGUGGAUAUGGCACGCAAGUUUCUACCGGGCACCGUAAAUGUCCGACUGGAGCCGUUCGGGCGGCUAUAAACAGACCUCAGGCCCGAAGCGUGGCGGCACCUGCCGCCGGUGGUAAAAAAGAUCGGAAGAGCACACGUCU [U7A G9A U10A C13A] | 1.26
GGGUCGAUAAUCGAUAAUCGCGUGGAUAUGGCACGCAAGUUUCUACCGGGCACCGUAAAUGUCCGACUGGAGCCGUUCGGGCGGCUAUAAACAGACCUCAGGCCCGAAGCGUGGCGGCACCUGCCGCCGGUGGUAAAAAAGAUCGGAAGAGCACACGUCU [U7A G9A U10A C13G] | 1.09
GGGUCGAUAAUCUAUAAUCGCGUGGAUAUGGCACGCAAGUUUCUACCGGGCACCGUAAAUGUCCGACUGGAGCCGUUCGGGCGGCUAUAAACAGACCUCAGGCCCGAAGCGUGGCGGCACCUGCCGCCGGUGGUAAAAAAGAUCGGAAGAGCACACGUCU [U7A G9A U10A C13U] | 1.29
GGGUCGAUAAUGUAUAAUCGCGUGGAUAUGGCACGCAAGUUUCUACCGGGCACCGUAAAUGUCCGACUGGAGCCGUUCGGGCGGCUAUAAACAGACCUCAGGCCCGAAGCGUGGCGGCACCUGCCGCCGGUGGUAAAAAAGAUCGGAAGAGCACACGUCU [U7A G9A U10A C12G C13U] | 1.41
GGGUCGAUAAUGGAUAAUCGCGUGGAUAUGGCACGCAAGUUUCUACCGGGCACCGUAAAUGUCCGACUGGAGCCGUUCGGGCGGCUAUAAACAGACCUCAGGCCCGAAGCGUGGCGGCACCUGCCGCCGGUGGUAAAAAAGAUCGGAAGAGCACACGUCU [U7A G9A U10A C12G C13G] | 1.3
GGGUCGAUAAUGAAUAAUCGCGUGGAUAUGGCACGCAAGUUUCUACCGGGCACCGUAAAUGUCCGACUGGAGCCGUUCGGGCGGCUAUAAACAGACCUCAGGCCCGAAGCGUGGCGGCACCUGCCGCCGGUGGUAAAAAAGAUCGGAAGAGCACACGUCU [U7A G9A U10A C12G C13A] | 1.25
GGGUCGAUAAACCAUAAUCGCGUGGAUAUGGCACGCAAGUUUCUACCGGGCACCGUAAAUGUCCGACUGGAGCCGUUCGGGCGGCUAUAAACAGACCUCAGGCCCGAAGCGUGGCGGCACCUGCCGCCGGUGGUAAAAAAGAUCGGAAGAGCACACGUCU [U7A G9A U10A U11A] | 1.34
GGGUCGAUAAUGCAUAAUCGCGUGGAUAUGGCACGCAAGUUUCUACCGGGCACCGUAAAUGUCCGACUGGAGCCGUUCGGGCGGCUAUAAACAGACCUCAGGCCCGAAGCGUGGCGGCACCUGCCGCCGGUGGUAAAAAAGAUCGGAAGAGCACACGUCU [U7A G9A U10A C12G] | 1.21
GGGUCGAUAAUUCAUAAUCGCGUGGAUAUGGCACGCAAGUUUCUACCGGGCACCGUAAAUGUCCGACUGGAGCCGUUCGGGCGGCUAUAAACAGACCUCAGGCCCGAAGCGUGGCGGCACCUGCCGCCGGUGGUAAAAAAGAUCGGAAGAGCACACGUCU [U7A G9A U10A C12U] | 1.21
GGGUCGAUAAUAUAUAAUCGCGUGGAUAUGGCACGCAAGUUUCUACCGGGCACCGUAAAUGUCCGACUGGAGCCGUUCGGGCGGCUAUAAACAGACCUCAGGCCCGAAGCGUGGCGGCACCUGCCGCCGGUGGUAAAAAAGAUCGGAAGAGCACACGUCU [U7A G9A U10A C12A C13U] | 1.29
GGGUCGAUAAAGCAUAAUCGCGUGGAUAUGGCACGCAAGUUUCUACCGGGCACCGUAAAUGUCCGACUGGAGCCGUUCGGGCGGCUAUAAACAGACCUCAGGCCCGAAGCGUGGCGGCACCUGCCGCCGGUGGUAAAAAAGAUCGGAAGAGCACACGUCU [U7A G9A U10A U11A C12G] | 1.15
GGGUCGAUAAAACAUAAUCGCGUGGAUAUGGCACGCAAGUUUCUACCGGGCACCGUAAAUGUCCGACUGGAGCCGUUCGGGCGGCUAUAAACAGACCUCAGGCCCGAAGCGUGGCGGCACCUGCCGCCGGUGGUAAAAAAGAUCGGAAGAGCACACGUCU [U7A G9A U10A U11A C12A] | 1.25
